Kd data for one molecule are collected here from publication PMC3595365 (Molecular cell, 2013).

The target of test [1] is His6-NEDD8 (UniProt Q15843 1-76). Put plainly: BLI. (Biolayer interferometry detects binding as a change in optical thickness at a sensor tip.)
Test [2] deals with His6-ubiquitin (UniProt P0CG48 1-76). As to the kind of experiment: BLI.

By Kd is commonly meant the constant that tells how readily two partners part at equilibrium. A high value points to lower affinity.

Sequence of His6-NEDD8 (Q15843 1-76): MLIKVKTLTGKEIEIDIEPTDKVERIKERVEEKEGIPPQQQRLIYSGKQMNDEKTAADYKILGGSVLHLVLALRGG

B1: GST-RNF168-MIU2 (439-462) (domain or fragment, UniProt Q8IYW5 439-462, looked up)
chain: RHKQEEQDRLLALQLQKEVDKEQM
In the case of B1, the Kd came to 14 ± 3 µM in test [1] and 17 ± 3 µM in test [2].
